Experimental data from article PMC3039378 (The Journal of Biological Chemistry, 2010).
One block for each molecule: values may come before it.

Legend:
[1] = biological target: SecA (wild type) (E. coli) (UniProt P10408)
[2] = biological target: SecA_(795Fl), SecA_(A795C) labelled with 5-iodoacetamidofluorescein (E. coli) (UniProt P10408); test: other fluorescence titration
[3] = biological target: SecA-SecYEG complex with SecYE_(L106C)G uncross-linked (106) in proteoliposomes (E. coli) (UniProt P10408)
[4] = biological target: SecA-SecYEG complex with SecYE_(L106C)G cross-linked (106X, back-to-back dimer) in proteoliposomes (E. coli) (UniProt P10408)
[5] = biological target: T1, SecY subunit (within wild-type SecYEG) (E. coli, UniProt P0AGA2 1-443); test: cross-linking
T1 sequence: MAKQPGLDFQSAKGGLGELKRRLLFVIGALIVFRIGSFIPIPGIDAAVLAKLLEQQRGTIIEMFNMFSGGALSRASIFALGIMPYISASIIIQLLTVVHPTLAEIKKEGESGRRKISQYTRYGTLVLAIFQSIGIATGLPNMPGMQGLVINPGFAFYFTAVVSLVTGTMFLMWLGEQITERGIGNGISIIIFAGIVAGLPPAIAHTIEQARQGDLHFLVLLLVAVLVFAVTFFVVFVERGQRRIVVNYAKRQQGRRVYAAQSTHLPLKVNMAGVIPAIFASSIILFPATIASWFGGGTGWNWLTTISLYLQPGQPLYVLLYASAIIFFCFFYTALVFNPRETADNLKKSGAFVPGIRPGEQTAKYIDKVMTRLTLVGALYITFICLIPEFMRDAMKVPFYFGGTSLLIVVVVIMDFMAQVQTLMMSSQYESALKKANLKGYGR

cross-linking = biological target: the molecule itself; test: cross-linking
[6] = biological target: SecA-SecYEG complex (wild-type SecYEG in proteoliposomes with SecA) (E. coli, UniProt P10408;P0AGA2;P0AG96;P0AG99)

Molecule: proOmpA (full-length, wild type) (from UniProt P0A910 1-346) (natural protein)
Kd [3]: 93 nM | Kd [4]: 92 nM

B1: SecE subunit (within wild-type SecYEG) (natural protein)
chain: MSANTEAQGSGRGLEAMKWVVVVALLLVAIVGNYLYRDIMLPLRALAVVILIAAAGGVALLTTKGKATVAFAREARTEVRKVIWPTRQETLHTTLIVAAVTAVMSLILWGLDGILVRLVSFITGLRF
binding result [5]: binds | binding result (cross-linking): binds

The remaining lines, values ahead:

Kd [1]: 78 nM | Kd [2]: < 1 nM
Molecule: SecYE_(L106C)G cross-linked (106X), back-to-back dimer (from UniProt P0AGA2;P0AG96;P0AG99) (complex)

Kd [6]: 72 ± 41 nM
B2: proOmpA (full-length, wild type) (natural protein)
chain: MKKTAIAIAVALAGFATVAQAAPKDNTWYTGAKLGWSQYHDTGFINNNGPTHENQLGAGAFGGYQVNPYVGFEMGYDWLGRMPYKGSVENGAYKAQGVQLTAKLGYPITDDLDIYTRLGGMVWRADTKSNVYGKNHDTGVSPVFAGGVEYAITPEIATRLEYQWTNNIGDAHTIGTRPDNGMLSLGVSYRFGQGEAAPVVAPAPAPAPEVQTKHFTLKSDVLFNFNKATLKPEGQAALDQLYSQLSNLDPKDGSVVVLGYTDRIGSDAYNQGLSERRAQSVVDYLISKGIPADKISARGMGESNPVTGNTCDNVKQRAALIDCLAPDRRVEIEVKGIKDVVTQPQA
